Laboratory results taken from patent publication US20260098059A1 (ENDOMET BIOSCIENCES, published 2026).
“And” between values parts separate entries of the source, which are not always exact repeats. Equal entries are not always repeated. [ ]: non-standard residue; d: D form. Trp(1-Me) = Cn1cc(C[C@H](N)C(=O)O)c2ccccc21; αMeW = C[C@](N)(Cc1c[nH]c2ccccc12)C(=O)O; Trp(3-Me) = 3-methyltryptophan; αMeL = CC(C)C[C@](C)(N)C(=O)O

T1: β-catenin (UniProt P35222 134-665, limits assumed, biotinylated in the SPR and plate assays)
T1 sequence (looked up): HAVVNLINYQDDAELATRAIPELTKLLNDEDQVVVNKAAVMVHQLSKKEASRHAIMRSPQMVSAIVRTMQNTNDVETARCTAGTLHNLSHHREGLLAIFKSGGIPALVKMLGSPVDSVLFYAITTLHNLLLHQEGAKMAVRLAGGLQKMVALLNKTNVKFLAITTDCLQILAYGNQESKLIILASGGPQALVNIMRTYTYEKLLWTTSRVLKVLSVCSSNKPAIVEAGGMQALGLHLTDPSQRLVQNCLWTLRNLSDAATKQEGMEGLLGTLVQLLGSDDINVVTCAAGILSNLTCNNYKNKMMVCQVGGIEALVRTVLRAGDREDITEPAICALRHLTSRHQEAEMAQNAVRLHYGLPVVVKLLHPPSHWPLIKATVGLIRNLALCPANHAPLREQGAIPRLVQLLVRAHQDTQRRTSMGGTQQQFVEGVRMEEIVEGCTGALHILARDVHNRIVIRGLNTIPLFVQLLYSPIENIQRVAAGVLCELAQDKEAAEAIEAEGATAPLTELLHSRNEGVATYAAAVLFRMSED

B1: SEQ ID NO: 203 (peptide)
peptide: KWALISAWD
HELM: PEPTIDE1{K.W.[Cha].L.I.S.A.W.D}$PEPTIDE1,PEPTIDE1,1:R3-9:R3$$$V2.0
SMILES: CC[C@H](C)[C@@H]1NC(=O)[C@H](CC(C)C)NC(=O)[C@H](CC2CCCCC2)NC(=O)[C@H](Cc2c[nH]c3ccccc23)NC(=O)[C@@H](N)CCCCNC(=O)C[C@@H](C(=O)O)NC(=O)[C@H](Cc2c[nH]c3ccccc23)NC(=O)[C@H](C)NC(=O)[C@H](CO)NC1=O
B2: SEQ ID NO: 187 (peptide)
peptide: KWFLISAWE
HELM: PEPTIDE1{[ac].K.W.F.L.I.S.A.W.E}$PEPTIDE1,PEPTIDE1,2:R3-10:R3$$$V2.0
SMILES: CC[C@H](C)[C@@H]1NC(=O)[C@H](CC(C)C)NC(=O)[C@H](Cc2ccccc2)NC(=O)[C@H](Cc2c[nH]c3ccccc23)NC(=O)[C@@H](NC(C)=O)CCCCNC(=O)CC[C@@H](C(=O)O)NC(=O)[C@H](Cc2c[nH]c3ccccc23)NC(=O)[C@H](C)NC(=O)[C@H](CO)NC1=O
B3: SEQ ID NO: 202 (peptide)
peptide: KWFLISAWD
HELM: PEPTIDE1{K.W.F.L.I.S.A.W.D}$PEPTIDE1,PEPTIDE1,1:R3-9:R3$$$V2.0
SMILES: CC[C@H](C)[C@@H]1NC(=O)[C@H](CC(C)C)NC(=O)[C@H](Cc2ccccc2)NC(=O)[C@H](Cc2c[nH]c3ccccc23)NC(=O)[C@@H](N)CCCCNC(=O)C[C@@H](C(=O)O)NC(=O)[C@H](Cc2c[nH]c3ccccc23)NC(=O)[C@H](C)NC(=O)[C@H](CO)NC1=O
B4: SEQ ID NO: 141 (peptide)
peptide: VWFLICFWG
HELM: PEPTIDE1{[Nva].W.F.L.I.C.F.W.G}$$$$V2.0
SMILES: CCC[C@H](N)C(=O)N[C@@H](Cc1c[nH]c2ccccc12)C(=O)N[C@@H](Cc1ccccc1)C(=O)N[C@@H](CC(C)C)C(=O)N[C@H](C(=O)N[C@@H](CS)C(=O)N[C@@H](Cc1ccccc1)C(=O)N[C@@H](Cc1c[nH]c2ccccc12)C(=O)NCC(=O)O)[C@@H](C)CC
B5: SEQ ID NO: 168 (peptide)
peptide: KWFLICAWD
HELM: PEPTIDE1{K.W.F.L.I.C.A.W.D}$PEPTIDE1,PEPTIDE1,1:R3-9:R3$$$V2.0
SMILES: CC[C@H](C)[C@@H]1NC(=O)[C@H](CC(C)C)NC(=O)[C@H](Cc2ccccc2)NC(=O)[C@H](Cc2c[nH]c3ccccc23)NC(=O)[C@@H](N)CCCCNC(=O)C[C@@H](C(=O)O)NC(=O)[C@H](Cc2c[nH]c3ccccc23)NC(=O)[C@H](C)NC(=O)[C@H](CS)NC1=O
B6: SEQ ID NO: 183 (peptide)
peptide: KWFLISAWE
HELM: PEPTIDE1{K.W.F.L.I.S.A.W.E}$PEPTIDE1,PEPTIDE1,1:R3-9:R3$$$V2.0
SMILES: CC[C@H](C)[C@@H]1NC(=O)[C@H](CC(C)C)NC(=O)[C@H](Cc2ccccc2)NC(=O)[C@H](Cc2c[nH]c3ccccc23)NC(=O)[C@@H](N)CCCCNC(=O)CC[C@@H](C(=O)O)NC(=O)[C@H](Cc2c[nH]c3ccccc23)NC(=O)[C@H](C)NC(=O)[C@H](CO)NC1=O
B7: SEQ ID NO: 172 (peptide)
peptide: KWFLICFWD
HELM: PEPTIDE1{K.W.F.L.I.C.F.W.D}$PEPTIDE1,PEPTIDE1,1:R3-9:R3$$$V2.0
SMILES: CC[C@H](C)[C@@H]1NC(=O)[C@H](CC(C)C)NC(=O)[C@H](Cc2ccccc2)NC(=O)[C@H](Cc2c[nH]c3ccccc23)NC(=O)[C@@H](N)CCCCNC(=O)C[C@@H](C(=O)O)NC(=O)[C@H](Cc2c[nH]c3ccccc23)NC(=O)[C@H](Cc2ccccc2)NC(=O)[C@H](CS)NC1=O
B8: SEQ ID NO: 147 (peptide)
peptide: MWFLICFWD
HELM: PEPTIDE1{[O=C(CCCN[*:1])[*:2]].M.W.F.L.I.C.F.W.D}$PEPTIDE1,PEPTIDE1,1:R1-10:R3$$$V2.0
SMILES: CC[C@H](C)[C@@H]1NC(=O)[C@H](CC(C)C)NC(=O)[C@H](Cc2ccccc2)NC(=O)[C@H](Cc2c[nH]c3ccccc23)NC(=O)[C@H](CCSC)NC(=O)CCCNC(=O)C[C@@H](C(=O)O)NC(=O)[C@H](Cc2c[nH]c3ccccc23)NC(=O)[C@H](Cc2ccccc2)NC(=O)[C@H](CS)NC1=O
B9: SEQ ID NO: 179 (peptide)
peptide: KWFLICFWE
HELM: PEPTIDE1{K.W.F.L.I.C.F.W.E}$PEPTIDE1,PEPTIDE1,1:R3-9:R3$$$V2.0
SMILES: CC[C@H](C)[C@@H]1NC(=O)[C@H](CC(C)C)NC(=O)[C@H](Cc2ccccc2)NC(=O)[C@H](Cc2c[nH]c3ccccc23)NC(=O)[C@@H](N)CCCCNC(=O)CC[C@@H](C(=O)O)NC(=O)[C@H](Cc2c[nH]c3ccccc23)NC(=O)[C@H](Cc2ccccc2)NC(=O)[C@H](CS)NC1=O
B10: SEQ ID NO: 169 (peptide)
peptide: KWFLICAWD
HELM: PEPTIDE1{[ac].K.W.F.L.I.C.A.W.D}$PEPTIDE1,PEPTIDE1,2:R3-10:R3$$$V2.0
SMILES: CC[C@H](C)[C@@H]1NC(=O)[C@H](CC(C)C)NC(=O)[C@H](Cc2ccccc2)NC(=O)[C@H](Cc2c[nH]c3ccccc23)NC(=O)[C@@H](NC(C)=O)CCCCNC(=O)C[C@@H](C(=O)O)NC(=O)[C@H](Cc2c[nH]c3ccccc23)NC(=O)[C@H](C)NC(=O)[C@H](CS)NC1=O
B11: SEQ ID NO: 120 (peptide)
peptide: KWILICFWD
HELM: PEPTIDE1{K.W.I.L.I.C.F.W.D}$PEPTIDE1,PEPTIDE1,1:R3-9:R3$$$V2.0
SMILES: CC[C@H](C)[C@@H]1NC(=O)[C@H](CC(C)C)NC(=O)[C@H]([C@@H](C)CC)NC(=O)[C@H](Cc2c[nH]c3ccccc23)NC(=O)[C@@H](N)CCCCNC(=O)C[C@@H](C(=O)O)NC(=O)[C@H](Cc2c[nH]c3ccccc23)NC(=O)[C@H](Cc2ccccc2)NC(=O)[C@H](CS)NC1=O
B12: SEQ ID NO: 201 (peptide)
peptide: KWFLIAFWE
HELM: PEPTIDE1{K.W.F.L.I.A.F.W.E}$PEPTIDE1,PEPTIDE1,1:R3-9:R3$$$V2.0
SMILES: CC[C@H](C)[C@@H]1NC(=O)[C@H](CC(C)C)NC(=O)[C@H](Cc2ccccc2)NC(=O)[C@H](Cc2c[nH]c3ccccc23)NC(=O)[C@@H](N)CCCCNC(=O)CC[C@@H](C(=O)O)NC(=O)[C@H](Cc2c[nH]c3ccccc23)NC(=O)[C@H](Cc2ccccc2)NC(=O)[C@H](C)NC1=O
B13: SEQ ID NO: 200 (peptide)
peptide: KWFLIAFWE
HELM: PEPTIDE1{[ac].K.W.F.L.I.A.F.W.E}$PEPTIDE1,PEPTIDE1,2:R3-10:R3$$$V2.0
SMILES: CC[C@H](C)[C@@H]1NC(=O)[C@H](CC(C)C)NC(=O)[C@H](Cc2ccccc2)NC(=O)[C@H](Cc2c[nH]c3ccccc23)NC(=O)[C@@H](NC(C)=O)CCCCNC(=O)CC[C@@H](C(=O)O)NC(=O)[C@H](Cc2c[nH]c3ccccc23)NC(=O)[C@H](Cc2ccccc2)NC(=O)[C@H](C)NC1=O
B14: SEQ ID NO: 171 (peptide)
peptide: KMWFLISFWD
HELM: PEPTIDE1{K.M.W.F.L.I.S.F.W.D}$PEPTIDE1,PEPTIDE1,1:R3-10:R3$$$V2.0
SMILES: CC[C@H](C)[C@@H]1NC(=O)[C@H](CC(C)C)NC(=O)[C@H](Cc2ccccc2)NC(=O)[C@H](Cc2c[nH]c3ccccc23)NC(=O)[C@H](CCSC)NC(=O)[C@@H](N)CCCCNC(=O)C[C@@H](C(=O)O)NC(=O)[C@H](Cc2c[nH]c3ccccc23)NC(=O)[C@H](Cc2ccccc2)NC(=O)[C@H](CO)NC1=O

Each binder was assayed against T1, β-catenin (assay: cell-based or functional assay).

Binder | Wnt Reporter EC50
H-KWILICFWG-OH [SEQ ID NO: 117] | > 15 µM and ≤ 22.5 µM
B1 | > 7.5 µM and ≤ 15 µM
B2 | > 7.5 µM and ≤ 15 µM
B3 | > 22.5 µM and ≤ 30 µM
H-M[αMeW]ILISFWG-OH [SEQ ID NO: 134] | > 30 µM
H-MWFLICHWG-OH [SEQ ID NO: 145] | > 7.5 µM and ≤ 15 µM
H-MWFLICH[Trp(3-Me)]G-OH [SEQ ID NO: 135] | > 7.5 µM and ≤ 15 µM
H-MWFLICH[Trp(1-Me)]G-OH [SEQ ID NO: 140] | > 15 µM and ≤ 22.5 µM
H-MWFLIHFWG-OH [SEQ ID NO: 163] | ≤ 7.5 µM
H-MWI[αMeL]ICFWG-OH [SEQ ID NO: 130] | > 22.5 µM and ≤ 30 µM
B4 | > 7.5 µM and ≤ 15 µM
B5 | ≤ 7.5 µM
B6 | ≤ 7.5 µM
B7 | ≤ 7.5 µM
H-RWILICFWG-OH [SEQ ID NO: 119] | > 7.5 µM and ≤ 15 µM
H-MWFLIQFWG-OH [SEQ ID NO: 143] | > 7.5 µM and ≤ 15 µM
B8 | > 30 µM
B9 | ≤ 7.5 µM
B10 | ≤ 7.5 µM
H-HWILICFWG-OH [SEQ ID NO: 118] | ≤ 7.5 µM
H-MWILISYWG-OH [SEQ ID NO: 152] | ≤ 7.5 µM
B11 | ≤ 7.5 µM
B12 | > 22.5 µM and ≤ 30 µM
B13 | ≤ 7.5 µM
B14 | ≤ 7.5 µM
